This note sets out measurements from article PMC9638941, “Molecular basis of dual anti-CRISPR and auto-regulatory functions of AcrIF24” (Nucleic Acids Research, 2022).

One data set deals with AcrIF24 R221W. Nature of the data set: SEC-MALS. Particulars: parent: 55.76.
Data set [1] deals with AcrIF24 Y128K/Y217W double mutant. Put plainly: SEC-MALS. Particulars: parent: 55.76.
In data set [2] the target is P. aeruginosa type I-F Cascade complex (Cas5f1, Cas6f, six copies of Cas7f1, Cas8f1 and a 60 nt crRNA) (UniProt Q02MM2). Put plainly: SEC followed by SDS-PAGE, band intensity quantified. The note with it: parent: est. 100; read off a plot.
In a further data set the target is AcrIF24 T129W. Put plainly: SEC-MALS. The note with it: parent: 55.76.
The target of data set [3] is T1, AcrIF24 wild type (Pseudomonas aeruginosa prophage, UniProt A0AA82WNY5 1-228).
T1 sequence: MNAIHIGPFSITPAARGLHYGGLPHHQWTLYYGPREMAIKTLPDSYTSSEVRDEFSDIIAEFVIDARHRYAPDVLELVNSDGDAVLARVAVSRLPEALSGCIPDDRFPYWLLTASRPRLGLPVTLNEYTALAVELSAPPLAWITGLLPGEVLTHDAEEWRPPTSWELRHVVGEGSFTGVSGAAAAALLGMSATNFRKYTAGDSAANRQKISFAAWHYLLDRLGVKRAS
Nature of the data set: EMSA; EMSA-P: 10 mM HEPES pH 7.5, 1 mM MgCl2, 20 mM KCl, 1 mM TCEP, 5% glycerol, 30 min on ice; 10% native 0.5x TBE gel, SYBR Gold; Cascade EMSA buffer not in material. Particulars: protein: recombinant, chain copies: 2, label: none (SYBR Gold stain).

Data set [4] has as its target T1, AcrIF24 wild type. Nature of the data set: EMSA; concentration-dependent; EMSA-P: 10 mM HEPES pH 7.5, 1 mM MgCl2, 20 mM KCl, 1 mM TCEP, 5% glycerol, 30 min on ice; 10% native 0.5x TBE gel, SYBR Gold; Cascade EMSA buffer not in material. The note with it: protein: recombinant; chain copies: 2; label: none (SYBR Gold stain); blunt.
Data set [5] deals with the molecule itself. Put plainly: SEC-MALS; Superdex 200 Increase 10/300 GL, SEC buffer (20 mM Tris-HCl pH 8.0, 150 mM NaCl), 0.4 ml/min, 20°C; DAWN-TREOS detector.

Substitutions are numbered along the chain they refer to.

On to “AcrIF24 (wildtype, full length, residues 1-228) R221W”, for which, in the data set with AcrIF24 R221W, the other: MW (kDa) by SEC-MALS was found to be 52.4 kDa.

Consider “AcrIF24 (wildtype, full length, residues 1-228) Y128K; Y217W”, for which the other: MW (kDa) by SEC-MALS in data set [1] is 39.6 kDa.

Turning to “AcrIF24 (wildtype, full length, residues 1-228) W110K”, in data set [2], the percent of parent turned out to be 11%.

Turning to “AcrIF24 (wildtype, full length, residues 1-228) G189K”, in data set [2], the percent of parent came to 88%.

For “AcrIF24 (wildtype, full length, residues 1-228) T129W”, the other: MW (kDa) by SEC-MALS with AcrIF24 T129W stood at 53.9 kDa.

“AcrIF24 (wildtype, full length, residues 1-228) D105K”: the percent of parent in data set [2] turned out to be 98%.

Take “AcrIF24 (wildtype, full length, residues 1-228) G22Y”: in data set [2], the percent of parent was found to be 98%.

B1: IR-S half-site mutant (dsDNA)
DNA 1: GCATGATCTTCGAGCTA
DNA 2: TAGCTCGAAGATCATGC
In the case of B1, in the data set with AcrIF24 wild type [3], the binding result was “no binding”.

B2: IR-L (dsDNA)
DNA 1: CAGAATATCATTGCATAGCTCGATTCGAGCTAATATAGTAATACCAACAGCGCGGCACACCGCCAGCACTGAACCT
DNA 2: AGGTTCAGTGCTGGCGGTGTGCCGCGCTGTTGGTATTACTATATTAGCTCGAATCGAGCTATGCAATGATATTCTG
In the case of B2, the binding result with AcrIF24 wild type [4] was “binds”.

B3: IR-L half-site mutant (dsDNA)
DNA 1: B2 DNA 1 with T16G, A17C, G18A, C19T, T20G, C21A, G22T, A23C
DNA 2: B2 DNA 2 with T54G, C55A, G56T, A57C, G58A, C59T, T60G, A61C
For the molecule B3, in the data set with AcrIF24 wild type [3], the binding result is “no binding”.

B4: IR-S (dsDNA)
DNA 1: TAGCTCGATTCGAGCTA
DNA 2: TAGCTCGAATCGAGCTA
Take B4: the binding result with AcrIF24 wild type [3] (blunt) is on record as “binds”.

B5: AcrIF24 (wildtype, full length, residues 1-228) (natural protein)
chain: T1 sequence
Turning to B5, in data set [5], the “stoichiometry N” value turned out to be 2.
